Experimental data as given in patent US20220363762A1, “METHODS AND COMBINATIONS FOR THE TREATMENT OF CANCER USING IMMUNE CHECKPOINT INHIBITOR ANTIBODIES” (ASTRAZENECA AB, priority 2020, published 2022).

B1: Tremelimumab (antibody)
VL: PSSLSASVGDRVTITCRASQSINSYLDWYQQKPGKAPKLLIYAASSLQSGVPSRFSGSGSGTDFTLTISSLQPEDFATYYCQQYYSTPFTFGPGTKVEIKRTVAAPSVFIFPPSDEQLKSGTASVVCLLNNFYPREAKV
VH: GVVQPGRSLRLSCAASGFTFSSYGMHWVRQAPGKGLEWVAVIWYDGSNKYYADSVKGRFTISRDNSKNTLYLQMNSLRAEDTAVYYCARDPRGATLYYYYYGMDVWGQGTTVTVSSASTKGPSVFPLAPCSRSTSESTAALGCLVKDYFPEPVTVSWNSGALTSGVH
modifications: light chain variable region; heavy chain variable region
notes: anti-CTLA-4 antibody; arm T = tremelimumab 750 mg monotherapy

Legend:
Assay type in all cases: in vivo, human
[1] = system: peripheral blood T cell receptors (TCRs); assay: Molecular analysis of peripheral blood T cell receptors (TCR clonal expansion); conditions: for Median expanded T cell clones at Day 29, n: Day 29, first cycle of Q4W dosing, spread in cell beside
Description: This trend was not seen with monotherapy D or the lower dose T combination (T75+D) (FIG. 15). Additionally, greater clonal expansion of T-cells was associated with better OS and seen in D+T combination arms (FIG. 16).

advanced HCC = assay: Randomized, open-label, multi-center clinical study of durvalumab and tremelimumab (Example 2): efficacy; conditions: for ORR, % / Median (95% CI) OS, mo: Table 1, per study arm; for Median (95% CI) OS, mo: 95% CI in cell beside; for Median PFS (95% CI): patients with advanced HCC
Experimental: The study disclosed below is a randomized, open-label, multi-center, global, clinical study to assess the efficacy and safety of durvalumab monotherapy and durvalumab plus tremelimumab combination therapy versus sorafenib in the treatment of immune checkpoint inhibitor-naïve patients with HCC who progressed on, were intolerant to, or refused sorafenib. In the foregoing disclosure, a flat-dose regimen of 1500 mg (approximately equivalent to 20 mg/kg) of durvalumab plus 300 mg (equivalent to 4 mg/kg) of tremelimumab was used in this study.
The study population included patients 18 years of age or older with advanced HCC, Barcelona Clinic Liver Cancer Stage B (not eligible for locoregional therapy) or stage C, and Child-Pugh A classification liver disease. Patients must not have received any prior systemic therapy for HCC. Patients were stratified according to macrovascular invasion (yes versus no), etiology of liver disease (hepatitis B virus [confirmed HBV] versus hepatitis C virus [confirmed HCV] versus others), and performance status (Eastern Cooperative Oncology Group [ECOG] 0 versus 1).
A total of 332 patients were enrolled (T300+D, n=75; durvalumab, n=104; tremelimumab, n=69; T75+D, n=84). Patients were randomized in an equal ratio to groups treated with durvalumab 1500 mg monotherapy (D), tremelimumab 750 mg monotherapy (T), combination therapy with durvalumab 1500 mg plus tremelimumab 75 mg×4 doses (T75+D) followed by durvalumab Q4W, combination therapy with durvalumab 1500 mg plus tremelimumab 300 mg xl dose (T 300+D) followed by durvalumab Q4W. Upon closure to further enrollment into the T75+D arm, patients were randomized in an equal ratio to groups treated with D, T300+D, and Sorafenib. Durvalumab and tremelimumab were administered via intravenous (IV) infusion every 4 weeks (Q4W). Sorafenib was administered orally BID (see FIGS. 3 and 4).
(§1) Tremelimumab 750 mg via IV infusion Q4W starting at Week 0 for seven doses and then Q12W until confirmed PD, unacceptable toxicity, or any discontinuation criterion was met. (Note: If a patient's weight decreased to ≤30 kg, the patient received weight-based dosing of tremelimumab 10 mg/kg Q4W, until the weight increased to >30 kg, at which point the patient received the flat dose of tremelimumab 750 mg Q4W).
as §1, with “Durvalumab 1500 mg monotherapy • Durvalumab 1500” for “Tremelimumab 750”, “0” for “0 for seven doses and then Q12W”, “durvalumab 20” for “tremelimumab 10”, “durvalumab 1500” for “tremelimumab 750”, “Q4W.)” for “Q4W).”
Durvalumab 1500 mg plus tremelimumab 75 mg×4 doses combination therapy (Arm B) • Durvalumab 1500 mg plus tremelimumab 75 mg×4 doses starting at Week 0, followed by durvalumab 1500 mg monotherapy Q4W starting 4 weeks after the final infusion of the combination therapy until confirmed PD, unacceptable toxicity, or any discontinuation criteria was met. (Note: If a patient's weight decreased to 30 kg or below (≤30 kg), the patient received weight-based dosing of durvalumab 20 mg/kg Q4W and tremelimumab 1 mg/kg Q4W, until the weight increased to >30 kg, at which point the patient received the original assigned flat dose of durvalumab 1500 mg Q4W with or without tremelimumab 75 mg Q4W.)
Durvalumab 1500 mg plus tremelimumab 300 mg×1 dose combination therapy (Arm C) • Durvalumab 1500 mg plus tremelimumab 300 mg×1 dose starting at Week 0, followed by durvalumab 1500 mg monotherapy Q4W starting 4 weeks after the first and final infusion of the combination therapy until confirmed PD, unacceptable toxicity, or any discontinuation criteria was met. […]

[2] = system: proliferating CD8+Ki67+ T cells; assay: Exposure-response model: tremelimumab exposure versus proliferating CD8+Ki67+ T cells
Experimental: (§2) Finally, an exposure-response model was developed to describe the relationship between tremelimumab exposure and proliferating CD8+Ki67+ T cells in patients with uHCC. Relationships between tremelimumab trough concentration after the first dose (Cmin) and the maximum change from baseline (CFB) for CD8+ Ki67+ T cell counts were evaluated using linear and non-linear regression models. Covariate effects were evaluated on the model intercept and the drug effect (Emax) using a stepwise search approach. The relationship between CD8+ Ki67+ T cell count CFB and tremelimumab trough concentration was best described by an Emax model. The only statistically significant and well estimated covariate effect was the baseline CD8+ Ki67+ T cell count on Emax. The maximum effect was higher in patients with lower baseline CD8+ Ki67+ T cell counts and lower in patients with higher baseline CD8+ Ki67+ T cell counts. At the 10th, median, and 90th percentiles of baseline CD8+ (3, 9, and 25 cells/uL), the maximum effect is 593%, 341%, and 77.9% change from baseline, respectively.

[3] = Tremelimumab trough concentration after the first dose (Cmin); conditions: 300 mg tremelimumab
Experimental: as §2

Row | Molecule | clonal expansion of T cells in responders compared to non-responders ([1]; Day 29) | Median expanded T cell clones at Day 29, n [1] | median increased T-cell clonal expansion, difference between arms ([1]; day 29, D versus T75+D arms) | ORR, % (advanced HCC) [%] | Median (95% CI) OS, mo (advanced HCC) [mo] | Median PFS (95% CI) (advanced HCC) | maximum effect (Emax), change from baseline of CD8+ Ki67+ T cell count ([2]; 10th percentile of baseline CD8+ (3 cells/uL)) [%] | maximum effect (Emax), change from baseline of CD8+ Ki67+ T cell count ([2]; 90th percentile of baseline CD8+ (25 cells/uL)) [%] | estimated half-maximal effective concentration (EC50) ([2]; Emax model, Cmin versus maximum change from baseline of CD8+ Ki67+ T cell counts, uHCC patients) [µg/mL] | maximum effect (Emax), change from baseline of CD8+ Ki67+ T cell count ([2]; median baseline CD8+ (9 cells/uL)) [%] | median Cmin [3] [ng/mL]
1 | Durvalumab [reference compound] | not seen | 32 | no significant difference | 10.6 | 13.6 | 2.07 (1.84-2.83) months |  |  |  |  | 
2 | B1 |  | 100 |  | 7.2 | 15.1 | 2.69 (1.87-5.29) months | 593 | 77.9 | 5.24 | 341 | 12900
